Data on 48 molecules can be found in US20030167129A1 (published 2003).

Where no end group is shown, it is not given here. [ ]: non-standard residue; d: D form. 1Nal = N[C@@H](Cc1cccc2ccccc12)C(=O)O; 2Nal = N[C@@H](Cc1ccc2ccccc2c1)C(=O)O; Tic = O=C(O)[C@@H]1Cc2ccccc2CN1; Aib = CC(C)(N)C(=O)O

B1: CPI-1500 (peptide)
peptide: ARSLI[2Nal]R[Tic]ARR[2Nal]RR-NH2
modifications: N-terminus assumed
SMILES: CC[C@H](C)[C@H](NC(=O)[C@H](CC(C)C)NC(=O)[C@H](CO)NC(=O)[C@H](CCCNC(=N)N)NC(=O)[C@H](C)N)C(=O)N[C@@H](Cc1ccc2ccccc2c1)C(=O)N[C@@H](CCCNC(=N)N)C(=O)N1Cc2ccccc2C[C@H]1C(=O)N[C@@H](C)C(=O)N[C@@H](CCCNC(=N)N)C(=O)N[C@@H](CCCNC(=N)N)C(=O)N[C@@H](Cc1ccc2ccccc2c1)C(=O)N[C@@H](CCCNC(=N)N)C(=O)N[C@@H](CCCNC(=N)N)C(N)=O
B2: CPI-1456 (peptide)
peptide: RRARSLI[2Nal]RAARR[2Nal]RR
notes: also called RRARSLI(2-Nal)RAARR(2-Nal)RR
B3: CPI-1366 (peptide)
peptide: Ac-ARSLI[2Nal]RAARR[2Nal]RR
notes: also called Ac-ARSLI(2-Nal)RAARR(2-Nal)RR
B4: CPI-1221 (peptide)
peptide: MARSLIWRPAKAKKK
notes: Original 15-mer consensus peptide; also called M-A-R-S-L-I-W-R-P-A-K-A-K-K-K
B5: CXCR4-GST (receptor, human, UniProt P61073 1-352, looked up)
chain: MEGISIYTSDNYTEEMGSGDYDSMKEPCFREENANFNKIFLPTIYSIIFLTGIVGNGLVILVMGYQKKLRSMTDKYRLHLSVADLLFVITLPFWAVDAVANWYFGNFLCKAVHVIYTVNLYSSVLILAFISLDRYLAIVHATNSQRPRKLLAEKVVYVGVWIPALLLTIPDFIFANVSEADDRYICDRFYPNDLWVVVFQFQHIMVGLILPGIVILSCYCIIISKLSHSKGHQKRKALKTTVILILAFFACWLPYYIGISIDSFILLEIIKQGCEFENTVHKWISITEALAFFHCCLNPILYAFLGAKFKTSAQHALTSVSRGSSLKILSKGKRGGHSSVSTESESSSFHSS
notes: whole, on cells; Full-length receptor expressed by baculovirus in High Five or Sf9 insect cells; assayed as membrane preparations or solubilized and immobilized on glutathione resin; also called GST-CXCR4 (High Five); CXCR4 with C-terminal GST tag; not shown: C-terminal GST tag

The target in the first assay is CXCR4 as HIV co-receptor in the HIV infectivity assay (HELA / Magi cells) (UniProt P61073 1-352, limits assumed). Description: cell-based or functional assay.
B1: the “inhibition of HIV IIIb infection, EC50” value is 280 nM.

The target in another assay is T1, CXCR4 (CXC chemokine receptor 4), tagged construct not stated (human, UniProt P61073 1-352).
T1 construct: whole, on cells; Receptor of the radioligand displacement assays of the peptides; in insect cell membranes; also called the receptor; CXCR4-containing membranes
The experiment in a line: inhibition of [125I]-SDF1α binding to CXCR4.
As for ARSLIWRLARRWRR [CPI-1425], the binding result was “binds”.
As to MARSLIWRP[Aib]KAKKK [CPI-1303], the binding result is “binds”.
As for B2, the binding result is listed as “binds”.
Still for that read-out and setting: with ARSLI[2Nal]RPARR[2Nal]RR (also called ARSLI(2-Nal)RPARR(2-Nal)RR) [CPI-1701] the entry was “binds”; with ARSLI[2Nal]RHARR[2Nal]RR (also called ARSLI(2-Nal)RHARR(2-Nal)RR) [CPI-1443], “binds”; with B3, “binds”.
For the molecule MARSLI[2Nal]RPAKAKKK [CPI-1309], the binding result is on record as “binds”.
Regarding ARSLIWRPARRRRR [CPI-1297], the binding result is “binds”.
As for RSLIWRPAK [CPI-1250], the binding result was “binds”.
In the case of MAESLIWRPARRWRR [CPI-1374], the binding result was “binds”.
The same measure, in the same setting: for FHEFRSLIWRPAKAKKK [CPI-1300] the value was “binds”; for YHEFRSLIWRPAKAKKK [CPI-1299], “binds”; for KKKARSLIWRPAKAKKK [CPI-1331], “binds”.
MARSLIWRPAERWRR [CPI-1373]: the binding result was “binds”.
On to FARSLI[2Nal]AARR[2Nal]RR [CPI-1390], for which the binding result was “binds”.
With RSLIWRPAKAKKK [CPI-1247], the binding result was “binds”.
For ISLIWRPAKAKKK [CPI-1248], the binding result is on record as “binds”.
In the case of MARSLIWRPAREWRR [CPI-1377], the binding result was “binds”.
In the case of MARSLI[1Nal]RPAKAKKK [CPI-1291], the binding result is “binds”.
In the case of ARSLIWRPAKAKKK [CPI-1292], the binding result is recorded as “binds”.
The same measure, in the same setting: with ARSLI[2Nal]R[Tic]ARR[2Nal]RR [CPI-1458] the entry was “binds”.
On to MARSLIWRPAKKK [CPI-1249], for which the binding result is on record as “binds”.
Same read-out and setting: for MARSLIWRPARRRRR [CPI-1332] the value was “binds”; for MARSLIWR[Tic]AKAKKK [CPI-1302], “binds”.
The same measure, in the same setting: with ARSIWRLARRWRR [CPI-1382] the entry was “binds”.
The same measure, in the same setting: for FARSLIERAARRWRR [CPI-1330] the value was “binds”; for MARSLIWRPAKARRR [CPI-1289], “binds”; for FARSLI[2Nal]EAARR[2Nal]RR (also called FARSLI(2-Nal)EAARR(2-Nal)RR) [CPI-1389], “binds”.
For the molecule MARSLIARPAKAKKK [CPI-1304], the binding result is listed as “binds”.
Same read-out and setting: for MARALIWRPAKAKKK [CPI-1328] the value was “binds”.
Regarding MARSAIWRPAKAKKK [CPI-1307], the binding result was “binds”.
On the same count and under the same terms, for MARSLIWRPAAAKKK [CPI-1306] the value was “binds”.
Take MAASLIWRPAKAKKK [SEQ ID NO 12 (Table 1 row without a CPI number)]: the binding result is on record as “binds”.
Regarding MAASLIWRPAKAKKK [CPI-1329], the binding result is listed as “binds”.
Same read-out and setting: for MARSLIWRPAKAAKK [CPI-1301] the value was “binds”.
As for MARSTIWRPAKAKKK [CPI-1298], the binding result was “binds”.
On the same count and under the same terms, for MARSLIWRPAKAKKA [CPI-1312] the value was “binds”.
MARSLIWRAAKAKKK [CPI-1295]: the binding result is recorded as “binds”.
As to MARSFIWRPAKAKKK [CPI-1296], the binding result is listed as “binds”.
On the same count and under the same terms, for MARSLAWRPAKAKKK [CPI-1308] the value was “binds”; for MARSLIWAPAKAKKK [CPI-1305], “binds”.
Still for that read-out and setting: with MARSLIWRPAKAKAK [CPI-1310] the entry was “binds”.
The same measure, in the same setting: for MARSLIWGPAKAKKK [CPI-1334] the value was “binds”; for MARSLIWEPARRWRR [CPI-1372], “binds”.

The target of the next assay is T1, CXCR4 (CXC chemokine receptor 4), …. Description: radioligand displacement of [125I]-SDF-1 from CXCR4. Background: Loss of bound radioactivity is the signal in a displacement assay; it reports binding, not function.
B4 displayed an IC50 of roughly 60000 nM.

Another assay shares this target. The experiment in a line: binding inhibition curves, [125I]-SDF1α displacement.
In the case of ARSLI[2Nal]RAARR[2Nal]RR (also called ARSLI(2-Nal)RAARR(2-Nal)RR) [CPI-1365], the binding result is recorded as “binds”.

For the next assay, the target named is T2, SDF-1α (UniProt P48061-2 22-89, 125I label on the radioligand form).
T2 construct: Labelled and unlabelled forms are kept as one molecule
T2 sequence (P48061 22-89 limits assumed): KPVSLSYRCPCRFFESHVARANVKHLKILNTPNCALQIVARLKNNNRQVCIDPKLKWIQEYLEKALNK
Description: radioligand saturation binding, [125I]-SDF-1α on membrane preparations of GST-CXCR4 (High Five).
Description: Whole cells from Sf9 and High five cell lines were lysed using hypotonic buffers (10 mM Tris, pH 7.4, 5 mM EDTA), and membrane preparations were made by homogenization and centrifugation using standard techniques known to those skilled in the art. […] For filtration and washing, the reaction was transferred to Millipore Multiscreen filter plates (HATF 0.45 μm; pre-blocked with 10% BSA) (Bedford, Mass.), filtered using vacuum, washed 4-5 times with 200 μL ice-cold buffer, and radioactive counts bound were detected using scintillation counting. All points were done in triplicate. Uninfected cells were used as a control for this experiment. […] Analyses of KD and IC₅₀ were performed using non-linear curve fitting in Kaleidagraph (software program sold by Synergy Software, Reading, Pa.).
On to B5, for which binding was put at a Kd of 3.27 nM.

Usually IC50 stands for the concentration that gives 50% inhibition. Usually Kd stands for the free concentration of one partner at which half of the binding sites on the other are occupied at equilibrium, for simple one-to-one binding. A lower Kd goes with a tighter complex.
